According to PMC8071527, “Substrate Specificity of Chimeric Enzymes Formed by Interchange of the Catalytic and Specificity Domains of the 5′-Nucleotidase UshA and the 3′-Nucleotidase CpdB” (Molecules, 2021):

Columns and labels:
Test in all cases: phosphate release, colorimetric, saturation kinetics
Type in all cases: biochemical, Escherichia coli
Details in all cases: Mn2+; alkaline phosphatase as auxiliary enzyme
[1] = test system: Nc1ncnc2c1ncn2[C@@H]1O[C@H](CO)[C@H]2OP(=O)(O)O[C@H]21
Excerpt: (§1) phosphate release, colorimetric, saturation kinetics on UshA_Ndom–CpdB_Cdom

[2] = test system: O=c1ccn([C@@H]2O[C@H](CO[P@@](=O)(O)O[P@@](=O)(O)O[C@H]3O[C@H](CO)[C@@H](O)[C@H](O)[C@H]3O)[C@@H](O)[C@H]2O)c(=O)[nH]1
Excerpt: as §1

[3] = test system: O=[N+]([O-])c1ccc(OP(=O)(O)Oc2ccc([N+](=O)[O-])cc2)cc1
Excerpt: as §1

[4] = test system: C[N+](C)(C)CCOP(=O)(O)OP(=O)([O-])OC[C@H]1O[C@@H](n2ccc(N)nc2=O)[C@H](O)[C@@H]1O
Excerpt: as §1

[5] = test system: Nc1ncnc2c1ncn2[C@@H]1O[C@H](CO)[C@H]2OP(=O)(O)O[C@H]21; remark: listed apart in the source
Excerpt: (§2) phosphate release, colorimetric, saturation kinetics on CpdB_Ndom–UshA_Cdom

[6] = test system: O=c1ccn([C@@H]2O[C@H](CO[P@@](=O)(O)O[P@@](=O)(O)O[C@H]3O[C@H](CO)[C@@H](O)[C@H](O)[C@H]3O)[C@@H](O)[C@H]2O)c(=O)[nH]1; remark: listed apart in the source
Excerpt: as §2

[7] = test system: O=[N+]([O-])c1ccc(OP(=O)(O)Oc2ccc([N+](=O)[O-])cc2)cc1; remark: listed apart in the source
Excerpt: as §2

[8] = test system: C[N+](C)(C)CCOP(=O)(O)OP(=O)([O-])OC[C@H]1O[C@@H](n2ccc(N)nc2=O)[C@H](O)[C@@H]1O; remark: listed apart in the source
Excerpt: as §2

Question: Which results are given for UshA_Ndom–CpdB_Cdom (Escherichia coli)?
Answer: Km [1]: 1100 ± 350 µM; kcat [1]: 3.6 ± 1 s⁻¹; kcat/Km [1]: 3400 ± 1300 M⁻¹ s⁻¹; Km [2]: 5000 ± 1700 µM; kcat [2]: 0.1 ± 0.01 s⁻¹; kcat/Km [2]: 20 ± 10 M⁻¹ s⁻¹; Km [3]: 670 ± 120 µM; kcat [3]: 45 ± 3 s⁻¹; kcat/Km [3]: 68000 ± 13000 M⁻¹ s⁻¹; Km [4]: 1400 ± 400 µM; kcat [4]: 0.3 ± 0.01 s⁻¹; kcat/Km [4]: 210 ± 60 M⁻¹ s⁻¹

Question: What does the source list for CpdB_Ndom–UshA_Cdom (Escherichia coli)?
Answer: Km [5]: 370 ± 40 µM; kcat [5]: 117 ± 24 s⁻¹; kcat/Km [5]: 320000 ± 80000 M⁻¹ s⁻¹; Km [6]: 5900 ± 1900 µM; kcat [6]: 0.2 ± 0.1 s⁻¹; kcat/Km [6]: 40 ± 8 M⁻¹ s⁻¹; Km [7]: 1400 ± 60 µM; kcat [7]: 208 ± 77 s⁻¹; kcat/Km [7]: 150000 ± 55000 M⁻¹ s⁻¹; Km [8]: 3900 ± 600 µM; kcat [8]: 11 ± 3 s⁻¹; kcat/Km [8]: 2700 ± 300 M⁻¹ s⁻¹
